Test results from publication PMC5098251 (Scientific Reports, 2016).

Columns and labels:
[1] = target: T1, FasR-Fc (Fc-fused Fas receptor) (Homo sapiens, UniProt P25445); assay: on-bead binding assay read by flow cytometry (Bead Surface Display); SNAP-scFv-HA made by in vitro transcription/translation and held on streptavidin beads through BG-DNA anchors; beads incubated 1 h at room temperature with FasR-Fc (1 nM unless stated; 1, 10 and 30 nM in Fig. 2B), then with DyLight488-labelled goat anti-Fc; 1.5% marvel in PBS, washes with PBS and 0.05% Tween 20; details: one partner purified
T1 construct: Fas receptor (FasR, CD95), human; also called Fas-Fc; CD95; source: bought: R&D Systems

[2] = target: T2, recombinant human FasR (Homo sapiens, UniProt P25445); assay: BLI; Octet Red384; recombinant human FasR; 1:1 Langmuir model; at least in duplicate; who was immobilised is not told (Supplementary Protocols 8-10); details: both partners purified
T2 construct: Fas receptor (FasR, CD95), human, recombinant; The FasR of the BLI and SPR experiments; Details are in Supplementary Protocols 8-10; also called recombinant FasR

[3] = target: T2, recombinant human FasR; assay: SPR; BIAcore T100; low density IgG-coated chip surface, recombinant human FasR; 1:1 Langmuir model; at least in duplicate; details: both partners purified

T1 sequence (P25445 26-173): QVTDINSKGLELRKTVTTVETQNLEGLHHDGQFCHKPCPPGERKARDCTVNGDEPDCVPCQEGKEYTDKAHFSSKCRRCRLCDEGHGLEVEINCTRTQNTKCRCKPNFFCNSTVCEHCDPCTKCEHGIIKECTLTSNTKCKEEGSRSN
T2 sequence (P25445 26-335): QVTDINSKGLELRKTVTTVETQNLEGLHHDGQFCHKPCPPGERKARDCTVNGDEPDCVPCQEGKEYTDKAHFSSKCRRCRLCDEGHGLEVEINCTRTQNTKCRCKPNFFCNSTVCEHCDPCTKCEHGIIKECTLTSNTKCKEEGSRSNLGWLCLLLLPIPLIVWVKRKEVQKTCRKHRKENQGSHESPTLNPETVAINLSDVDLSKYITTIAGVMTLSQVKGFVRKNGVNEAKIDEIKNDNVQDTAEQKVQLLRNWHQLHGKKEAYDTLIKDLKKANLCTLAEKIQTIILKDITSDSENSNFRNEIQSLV

Row | Binder | Kd [2] | koff [2] | kon [2] | other results
1 | SNAP-A11b scFv-HA (scFv, V domains shown, numbers count on: Kabat numbering; scFv linker, as in m6; On-bead form of m14; not shown: SNAP-tag, N-terminal, kept; HA, C-terminal, kept) VH: QLQLQESGPGLVKPSETLSLTCTVPGASISANSYYGVWVRQSPGKGLEWVGSIAYRGNSNSGSTYYNPSLKSRATVSVDTSKNQVSLRLTSVTAADTALYYCARRQLLDDGTGYQWAAFDVWGQGTMVTVSG VL: QSVLTQPPSVSEAPRQTVTISCSGNSFNTGRYPVNWYQQLPGKAPKLLIYSNNLRLSGVSDRFSGSKSGTSASLAIRDLLSEDEADYYCSTWDDTLEGWVFGGGTKVTVL |  |  |  | fold increase of MFS over E09 [1]: > 2 fold
2 | SNAP-A01b scFv-HA (scFv, V domains shown, numbers count on: Kabat numbering; scFv linker, as in m6; On-bead form of m10; not shown: SNAP-tag, N-terminal, kept; HA, C-terminal, kept) VH: QLQLQESGPGLVKPSETLSLTCTVPGASISANSYYGVWIRQSPGKGLEWVGSIAYRGNSNSGSTYYNPSLKSRATVSVDTSKNRVSLRLTSVTAADTALYYCARRQLLDDGTGYQWAAFDVWGQGTMVTVPS VL: QSVLTQPPSVSEVPRQTVTISCSGNSFNIGRYPVNWYQQLPGKAPKLLIYHNNLRFSGVSDRFSGSKSGTSASLAIRDLLSEDEADYYCSTWDDTLKGWVFGGGTKVTVL |  |  |  | fold increase of MFS over E09 [1]: > 2 fold
3 | SNAP-E09_Y58S scFv-HA (scFv, V domains shown, whole scFv (VH, linker, VL) as in m3 (E09) with Y58S; not shown: SNAP-tag, N-terminal, kept; HA, C-terminal, kept) VH: QLQLQESGPGLVKPSETLSLTCTVSGASISANSYYGVWVRQSPGKGLEWVGSIAYRGNSNSGSTSYNPSLKSRATVSVDTSKNQVSLRLTSVTAADTALYYCARRQLLDDGTGYQWAAFDVWGQGTMVTVSS VL: QSVLTQPPSVSEAPRQTVTISCSGNSFNIGRYPVNWYQQLPGKAPKLLIYYNNLRFSGVSDRFSGSKSGTSASLAIRDLLSEDEADYYCSTWDDTLKGWVFGGGTKVTVL |  |  |  | binding result [1]: binds
4 | E09 IgG (antibody, V domains shown, VH: as the VH of m6 (E09); IgG heavy constant region; VL: as the VL of m6 (E09); light constant region; IgG; also called parent) VH: QLQLQESGPGLVKPSETLSLTCTVSGASISANSYYGVWVRQSPGKGLEWVGSIAYRGNSNSGSTYYNPSLKSRATVSVDTSKNQVSLRLTSVTAADTALYYCARRQLLDDGTGYQWAAFDVWGQGTMVTVSS VL: QSVLTQPPSVSEAPRQTVTISCSGNSFNIGRYPVNWYQQLPGKAPKLLIYYNNLRFSGVSDRFSGSKSGTSASLAIRDLLSEDEADYYCSTWDDTLKGWVFGGGTKVTVL | 15.7 nM | 0.00266 s⁻¹ | 236000 M⁻¹ s⁻¹ | Kd [3]: 13.7 nM; koff [3]: 0.00239 s⁻¹; kon [3]: 174000 M⁻¹ s⁻¹
5 | Ep6b_B01 IgG (antibody, V domains shown, numbers count on: Kabat numbering; IgG heavy constant region; light constant region; IgG) VH: QLQLQESGPGLVKPSETLSLTCTVSGASISANSYYGVWVRQSPGKGLEWVGSIAYRGNSNSGSTYYNPSLKSRATVSVDSSKNQVSLRLTSVTAADTALYYCARRQLLDDGTGYQWAAFDVWGQGTMVTVSS VL: QSVLTQPPSVSEAPRQTVTISCSGNSSNIGRYPVNWYQQLPGKAPKLLIYSDNLRFSGVPDRFSGSKSGTTASLAIRDLLSEDEADYYCSTWDDTLEGWVFGGGTKVTVL | 0.23 nM | 5.9e-05 s⁻¹ | 402000 M⁻¹ s⁻¹ | Kd [3]: 0.06 nM; koff [3]: 4.4e-05 s⁻¹; kon [3]: 746000 M⁻¹ s⁻¹
6 | R4aS IgG (antibody, V domains shown, numbers count on: Kabat numbering; IgG heavy constant region; light constant region; IgG; also called antibody R4aS) VH: QLQLQESGPGLVKPSETLSLTCTVPGASISANSYYGVWVRQSPGKGLEWVGSIAYRGNSNSGSTYYNPSLKSRATVSVDTSKNQVSLRLTSVTAADTALYYCARRQLLDDGTGYQWAAFDNWDQGTMVTVSS VL: QSVLTQPPSVSEAPRQTVTISCSGNSFNTGRYPVNWYQQLPGKAPKLLIYSNNLRLSGVSDRFSGSKSGTSASLAIRDLLSEDEADYYCSTWDDTLEGWVFGGGTKVTVL | 0.09 nM | 1.2e-05 s⁻¹ | 249000 M⁻¹ s⁻¹ | Kd [3]: 0.14 nM; koff [3]: 3.8e-05 s⁻¹; kon [3]: 282000 M⁻¹ s⁻¹
7 | SNAP-A07a scFv-HA (scFv, V domains shown, numbers count on: Kabat numbering; scFv linker, as in m6; On-bead form of m15; not shown: SNAP-tag, N-terminal, kept; HA, C-terminal, kept) VH: QLQLQESGPGLVKPSETLSLTCTVPGASISANSYYGVWVRQSPGKGLEWVGSIAYRGNSNSGSTYYNPSLKGRATVSVDTSKNQVSLRLTSVTAADTALYYCARRQLLDDGTGYQWAAFDNWDQGTMVTVSS VL: QSVLTQPPSVSEAPRQTVTISCSGNSFNIGRYPVNWYQQLPGKAPKLLIYSNNLRFSGVSDRFSGSKSGTSASLAIRDLLSEDEADYYCSTWDDTLKGWVFGGGTKVTVL |  |  |  | fold increase of MFS over E09 [1]: > 2 fold
8 | A01b scFv (scFv, V domains shown, numbers count on: Kabat numbering; scFv linker, as in m6; Selected by BeSD, round IV) VH: QLQLQESGPGLVKPSETLSLTCTVPGASISANSYYGVWIRQSPGKGLEWVGSIAYRGNSNSGSTYYNPSLKSRATVSVDTSKNRVSLRLTSVTAADTALYYCARRQLLDDGTGYQWAAFDVWGQGTMVTVPS VL: QSVLTQPPSVSEVPRQTVTISCSGNSFNIGRYPVNWYQQLPGKAPKLLIYHNNLRFSGVSDRFSGSKSGTSASLAIRDLLSEDEADYYCSTWDDTLKGWVFGGGTKVTVL | 2.15 nM | 0.000272 s⁻¹ | 168000 M⁻¹ s⁻¹ | 
9 | SNAP-Ep6b_B01 scFv-HA (scFv, V domains shown, numbers count on: Kabat numbering; scFv linker, as in m6; not shown: SNAP-tag, N-terminal, kept; HA, C-terminal, kept) VH: QLQLQESGPGLVKPSETLSLTCTVSGASISANSYYGVWVRQSPGKGLEWVGSIAYRGNSNSGSTYYNPSLKSRATVSVDSSKNQVSLRLTSVTAADTALYYCARRQLLDDGTGYQWAAFDVWGQGTMVTVSS VL: QSVLTQPPSVSEAPRQTVTISCSGNSSNIGRYPVNWYQQLPGKAPKLLIYSDNLRFSGVPDRFSGSKSGTTASLAIRDLLSEDEADYYCSTWDDTLEGWVFGGGTKVTVL |  |  |  | fold MFS over E09_Y58S (1 nM antigen) [1]: 8.4 fold; fold MFS over E09_Y58S (30 nM antigen) [1]: 1.8 fold
10 | SNAP-A03a scFv-HA (scFv, V domains shown, numbers count on: Kabat numbering; scFv linker, as in m6; On-bead form of m11; not shown: SNAP-tag, N-terminal, kept; HA, C-terminal, kept) VH: QLQLQESGPGLVKPSETLSLTCTVPGASISANSYYGVWVRQSPGRGLEWVGSIAYRGNSNSGSTYYNPSLKSRATVSVDTSKNQVSLRLTSVTAADTALYYCARRRLLDDGTGYQWAAFDNWDQGTMVTVSS VL: QSVLTQSPSVSEAPRQTVTISCSGNSFNTGRYPVNWYQQLPGKAPKLLIYSNNLRLSGVSDRFSGSKSGTSASLAIRDLLSEDEADYYCSTWDDTLEGWVFGGGTKVTVL |  |  |  | fold increase of MFS over E09 [1]: > 2 fold
11 | A05a scFv (scFv, V domains shown, numbers count on: Kabat numbering; scFv linker, as in m6; Most abundant variant of round IV; the same as the Clade 2 consensus R4aH; also called R4aH) VH: QLQLQESSPGLVKPSETLSITCTVPGASISANSYYGVWVRQSPGKGLEWVGSIAYRGNSNSGSTYYNPSLKSRATVSVDTSKNQVSLRLTSVTAADTALYYCARRQLLDDGTGYQWAAFDVWGQGTMVTVSS VL: QSVLTQPPSVSEAPRQTVTISCSGNSFNIGRYPVNWYQQLPGKAPKLLIYHNNLRFSGVSDRFSGSKSGTSASLAIRDLLSEDEADYYCSTWDDTLKGWVFGGGTKVTVL | 2.89 nM | 0.00039 s⁻¹ | 153000 M⁻¹ s⁻¹ | 

Further lines, with some results ahead:

Row | Kd [2] | koff [2] | kon [2] | Binder | other results
12 | 7.6 nM | 0.000956 s⁻¹ | 236000 M⁻¹ s⁻¹ | anti-Fas receptor scFv E09 (scFv, V domains shown, VH of E09; scFv linker; VL of E09; also called parent; wild-type E09) VH: QLQLQESGPGLVKPSETLSLTCTVSGASISANSYYGVWVRQSPGKGLEWVGSIAYRGNSNSGSTYYNPSLKSRATVSVDTSKNQVSLRLTSVTAADTALYYCARRQLLDDGTGYQWAAFDVWGQGTMVTVSS VL: QSVLTQPPSVSEAPRQTVTISCSGNSFNIGRYPVNWYQQLPGKAPKLLIYYNNLRFSGVSDRFSGSKSGTSASLAIRDLLSEDEADYYCSTWDDTLKGWVFGGGTKVTVL | 
13 | 1.02 nM | 0.000171 s⁻¹ | 277000 M⁻¹ s⁻¹ | A07a IgG (antibody, V domains shown, numbers count on: Kabat numbering; IgG heavy constant region; light constant region; IgG made from the scFv A07a) VH: QLQLQESGPGLVKPSETLSLTCTVPGASISANSYYGVWVRQSPGKGLEWVGSIAYRGNSNSGSTYYNPSLKGRATVSVDTSKNQVSLRLTSVTAADTALYYCARRQLLDDGTGYQWAAFDNWDQGTMVTVSS VL: QSVLTQPPSVSEAPRQTVTISCSGNSFNIGRYPVNWYQQLPGKAPKLLIYSNNLRFSGVSDRFSGSKSGTSASLAIRDLLSEDEADYYCSTWDDTLKGWVFGGGTKVTVL | Kd [3]: 0.29 nM; koff [3]: 6.7e-05 s⁻¹; kon [3]: 230000 M⁻¹ s⁻¹
14 | 1.09 nM | 0.000181 s⁻¹ | 240000 M⁻¹ s⁻¹ | A03a scFv (scFv, V domains shown, numbers count on: Kabat numbering; scFv linker, as in m6; Selected by BeSD, round IV) VH: QLQLQESGPGLVKPSETLSLTCTVPGASISANSYYGVWVRQSPGRGLEWVGSIAYRGNSNSGSTYYNPSLKSRATVSVDTSKNQVSLRLTSVTAADTALYYCARRRLLDDGTGYQWAAFDNWDQGTMVTVSS VL: QSVLTQSPSVSEAPRQTVTISCSGNSFNTGRYPVNWYQQLPGKAPKLLIYSNNLRLSGVSDRFSGSKSGTSASLAIRDLLSEDEADYYCSTWDDTLEGWVFGGGTKVTVL | 
15 | 1.09 nM | 0.000111 s⁻¹ | 130000 M⁻¹ s⁻¹ | A11b scFv (scFv, V domains shown, numbers count on: Kabat numbering; scFv linker, as in m6; Selected by BeSD, round IV) VH: QLQLQESGPGLVKPSETLSLTCTVPGASISANSYYGVWVRQSPGKGLEWVGSIAYRGNSNSGSTYYNPSLKSRATVSVDTSKNQVSLRLTSVTAADTALYYCARRQLLDDGTGYQWAAFDVWGQGTMVTVSG VL: QSVLTQPPSVSEAPRQTVTISCSGNSFNTGRYPVNWYQQLPGKAPKLLIYSNNLRLSGVSDRFSGSKSGTSASLAIRDLLSEDEADYYCSTWDDTLEGWVFGGGTKVTVL | 
16 | 0.71 nM | 0.000125 s⁻¹ | 214000 M⁻¹ s⁻¹ | Ep6b_B01 scFv (scFv, V domains shown, numbers count on: Kabat numbering; scFv linker, as in m6) VH: QLQLQESGPGLVKPSETLSLTCTVSGASISANSYYGVWVRQSPGKGLEWVGSIAYRGNSNSGSTYYNPSLKSRATVSVDSSKNQVSLRLTSVTAADTALYYCARRQLLDDGTGYQWAAFDVWGQGTMVTVSS VL: QSVLTQPPSVSEAPRQTVTISCSGNSSNIGRYPVNWYQQLPGKAPKLLIYSDNLRFSGVPDRFSGSKSGTTASLAIRDLLSEDEADYYCSTWDDTLEGWVFGGGTKVTVL | 
17 | 2.63 nM | 0.00029 s⁻¹ | 147000 M⁻¹ s⁻¹ | A09a scFv (scFv, V domains shown, numbers count on: Kabat numbering; scFv linker, as in m6; Selected by BeSD, round IV) VH: QLQLQEPGPGLTKPSETLSLTCTVPGASISADSYYGVWVRQSPGKGLEWVGSIAYRGNSNSGSTYYNPSLKSRATVSVDTSKNQVSLRLTSVTAADTALYYCARRQLLDDGTGYQWAAFDVWGQGTMVTVSS VL: QSVLTQPPSVSEAPRQTVTISCSGNSFNIGRYPVNWYQQLPGKAPKLLIYHNNLRFSGVSDRFSGSKSGTSASLAIRDLLSEDEADYYCSTWDDTLKGWVFGGGTKVTVL | 
